Laboratory results as given in publication PMC4013577.

Columns and labels:
anti-hIgG (IgG2a) [1] = experiment: SPR; Autolab ESPRIT, room temperature, PBS pH 7.4; anti-hIgG adsorbed on the Cal-4 derivative 1 (ethylester) SAM on gold, blocked with 0.1 mg/mL BSA, then 100 μL of 10 μg/mL protein G
anti-hIgG (IgG2a) [2] = experiment: SPR; Autolab ESPRIT, room temperature, PBS pH 7.4; anti-hIgG adsorbed on the Cal-4 derivative 2 (carboxylic acid) SAM on gold, blocked with 0.1 mg/mL BSA, then 100 μL of 10 μg/mL protein G

Protein G (from UniProt P06654 34-417) (natural protein)
SPR angle shift (anti-hIgG (IgG2a) [1]): 32.6 m° | SPR angle shift (anti-hIgG (IgG2a) [2]): 94 m°
